Like-named read-outs stand apart in the source and are kept apart here.
Assays:
[1] = target: T1, androgen receptor (rAR) (rat, UniProt P15207 1-902); test: EMSA
[2] = target: T1, androgen receptor (rAR); test: EMSA; remark: listed apart in the source

T1 sequence (P15207 whole entry S389L): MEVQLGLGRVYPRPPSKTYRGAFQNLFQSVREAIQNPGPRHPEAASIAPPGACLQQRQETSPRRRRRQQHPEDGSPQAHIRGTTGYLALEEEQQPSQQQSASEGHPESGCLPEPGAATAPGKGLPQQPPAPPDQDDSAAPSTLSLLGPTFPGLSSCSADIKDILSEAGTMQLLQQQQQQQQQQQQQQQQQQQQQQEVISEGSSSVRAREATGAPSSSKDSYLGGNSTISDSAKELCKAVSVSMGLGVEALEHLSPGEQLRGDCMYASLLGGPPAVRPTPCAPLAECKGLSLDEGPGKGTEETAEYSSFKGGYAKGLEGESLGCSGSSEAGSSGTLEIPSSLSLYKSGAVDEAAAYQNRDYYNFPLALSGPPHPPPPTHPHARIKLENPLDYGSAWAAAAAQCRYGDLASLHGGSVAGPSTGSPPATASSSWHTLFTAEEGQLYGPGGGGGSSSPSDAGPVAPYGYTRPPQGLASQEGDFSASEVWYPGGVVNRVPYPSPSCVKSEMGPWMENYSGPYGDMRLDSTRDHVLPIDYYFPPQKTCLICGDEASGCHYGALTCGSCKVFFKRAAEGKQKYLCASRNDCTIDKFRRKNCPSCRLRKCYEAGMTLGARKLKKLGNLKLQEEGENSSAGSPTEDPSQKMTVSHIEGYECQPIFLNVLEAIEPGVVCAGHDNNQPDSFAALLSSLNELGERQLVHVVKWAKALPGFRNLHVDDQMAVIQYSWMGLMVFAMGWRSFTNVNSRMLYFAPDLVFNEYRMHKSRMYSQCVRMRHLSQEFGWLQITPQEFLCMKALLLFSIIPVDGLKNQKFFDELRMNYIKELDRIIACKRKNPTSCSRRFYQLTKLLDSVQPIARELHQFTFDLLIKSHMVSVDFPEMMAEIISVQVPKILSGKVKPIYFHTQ

Binder	binding result [1]	binding result [2]
-499/-484 HRE (dsDNA) DNA 1: ATCTAGAATAATTGGTATTAGAACAGGCTGCTTAAAACAGTTAA DNA 2: TTAACTGTTTTAAGCAGCCTGTTCTAATACCAATTATTCTAGAT	no binding	–
-159/-144 HRE (dsDNA) DNA 1: GGGCTTGGCATGTTCTGTTAGCACTCTTTTAGATT DNA 2: AATCTAAAAGAGTGCTAACAGAACATGCCAAGCCC	no binding	–
HRE consensus (dsDNA) DNA 1: ACGGGTGGAACGCGGTGTTCTTTTGGCACG DNA 2: CGTGCCAAAAGAACACCGCGTTCCACCCGT	–	binds

Reference: publication PMC8177864
